Assay results as given in the supplement of paper PMC5998384.

Tests used:
HeLa Kyoto [1] = assay: solubility in G1/S (NP-40 vs SDS abundance) (log2 ratio); higher = more soluble; settings: cell cycle stage: G1/S
HeLa Kyoto [2] = assay: solubility change mitosis vs G1/S (difference of NP-40 vs SDS log2 ratios) (log2 ratio difference); higher = more soluble in mitosis
HeLa Kyoto [3] = assay: melting temperature (median over replicates), in situ; higher = more thermally stable
HeLa Kyoto [4] = assay: thermal stability score vs G1/S (z-score of summed log2 fold changes over temperatures); higher = more thermally stable than in G1/S
[5] = cell cycle stage: early G1 (4.5 h after nocodazole release)
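For melting temperature (median over replicates), in situ in this document: HeLa Kyoto cells synchronized by double thymidine or nocodazole block, proteins quantified by TMT10plex mass spectrometry, three independent biological replicates.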
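For solubility change mitosis vs G1/S (difference of NP-40 vs SDS log2 ratios) in this document: synchronized HeLa Kyoto cells (double thymidine block for G1/S, nocodazole release for mitosis), protein amounts in NP-40 versus SDS lysates quantified by mass spectrometry, three biological replicates.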
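For solubility in G1/S (NP-40 vs SDS abundance) in this document: HeLa Kyoto cells arrested at G1/S by double thymidine block, proteins quantified by TMT10plex mass spectrometry in mild NP-40 versus SDS extracts, three biological replicates.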
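For thermal stability score vs G1/S (z-score of summed log2 fold changes over temperatures) in this document: synchronized HeLa Kyoto cells, proteins quantified by TMT10plex mass spectrometry, three biological replicates, mitosis taken 0.5 h after nocodazole release, G1/S directly after double thymidine block.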

Substance | solubility in G1/S (log2) (HeLa Kyoto [1]) | solubility change mitosis (log2) (HeLa Kyoto [2]) | melting temperature (HeLa Kyoto [3]; cell cycle stage: G1/S) | melting temperature (HeLa Kyoto [3]; cell cycle stage: mitosis) | thermal stability score (HeLa Kyoto [4]; [5]) | thermal stability score (HeLa Kyoto [4]; cell cycle stage: mitosis)
MRDRTHELRQGDDSSDEEDKERVALVVHPGTARLGSPDEEFFHKVRTIRQTIVKLGNKVQELEKQQVTILATPLPEESMKQELQNLRDEIKQLGREIRLQLKAIEPQKEEADENYNSVNTRMRKTQHGVLSQQFVELINKCNSMQSEYREKNVERIRRQLKITNAGMVSDEELEQMLDSGQSEVFVSNILKDTQVTRQALNEISARHSEIQQLERSIRELHDIFTFLATEVEMQGEMINRIEKNILSSADYVERGQEHVKTALENQKKARKKKVLIAICVSITVVLLAVIIGVTVVG [STX4] | 0.326 | 0.0104 | 51.2 °C | 50.5 °C | 0.652 | 0.313
ANKRD17 | -0.13 | 0.0244 | 49.8 °C | 49.9 °C | -0.291 | 0.712
MATSATSPHAPGFPAEGRCGYYVEKKKRFCRMVVAAGKRFCGEHAGAAEEEDARKRILCPLDPKHTVYEDQLAKHLKKCNSREKPKPDFYIQDINAGLRDETEIPEQLVPISSLSEEQLEKLIKKLRKASEGLNSTLKDHIMSHPALHDALNDPKNGDSATKHLKQQASILGNIENLKLLGPRRCFVEFGAGKGKLSHWVDIALKDAEKVHFILVEKVTTRFKVDGKHRKKNSVFERLQIDIQHLCLNKIPVLREEKLPVVGIGKHLCGMATDLALRCLVETYAASFEERNEEPLAKRIKNDKTEKEIYTLAKEGNEKNVPEKWNPVAGIVIALCCHHRCDWRHYVGKEYFRALGLGAVEFHYFQRMSSWATCGMRKTSLETSNSTTKRQDNQNDDSEEHDDGGYRITDDGADCLPGLLSVEEKKKIGHLCKLLIDQGRIQYLQQKGFSPALQYYTDPLVSLENVLLTALPNHSSSPETTA [TRMT13] | 0.027 | -0.0657 | – | 50.3 °C | 1.03 | 0.684
MVSPATRKSLPKVKAMDFITSTAILPLLFGCLGVFGLFRLLQWVRGKAYLRNAVVVITGATSGLGKECAKVFYAAGAKLVLCGRNGGALEELIRELTASHATKVQTHKPYLVTFDLTDSGAIVAAAAEILQCFGYVDILVNNAGISYRGTIMDTTVDVDKRVMETNYFGPVALTKALLPSMIKRRQGHIVAISSIQGKMSIPFRSAYAASKHATQAFFDCLRAEMEQYEIEVTVISPGYIHTNLSVNAITADGSRYGVMDTTTAQGRSPVEVAQDVLAAVGKKKKDVILADLLPSLAVYLRTLAPGLFFSLMASRARKERKSKNS [DHRS7B] | -0.22 | -0.121 | 51.6 °C | 51.4 °C | -0.951 | -0.984
FAM91A1 | -0.0537 | -0.101 | 51.9 °C | 51.3 °C | -0.197 | -1.55
MATESPATRRVQVAEHPRLLKLKEMFNSKFGSIPKFYVRAPGRVNIIGEHIDYCGYSVLPMAVEQDVLIAVEPVKTYALQLANTNPLYPDFSTSANNIQIDKTKPLWHNYFLCGLKGIQEHFGLSNLTGMNCLVDGNIPPSSGLSSSSALVCCAGLVTLTVLGRNLSKVELAEICAKSERYIGTEGGGMDQSISFLAEEGTAKLIEFSPLRATDVKLPSGAVFVIANSCVEMNKAATSHFNIRVMECRLAAKLLAKYKSLQWDKVLRLEEVQAKLGISLEEMLLVTEDALHPEPYNPEEICRCLGISLEELRTQILSPNTQDVLIFKLYQRAKHVYSEAARVLQFKKICEEAPENMVQLLGELMNQSHMSCRDMYECSCPELDQLVDICRKFGAQGSRLTGAGWGGCTVSMVPADKLPSFLANVHKAYYQRSDGSLAPEKQSLFATKPGGGALVLLEA [GALK2] | 0.145 | -0.141 | 54.5 °C | 54.2 °C | 0.289 | 0.99
MVEDELALFDKSINEFWNKFKSTDTSCQMAGLRDTYKDSIKAFAEKLSVKLKEEERMVEMFLEYQNQISRQNKLIQEKKDNLLKLIAEVKGKKQELEVLTANIQDLKEEYSRKKETISTANKANAERLKRLQKSADLYKDRLGLEIRKIYGEKLQFIFTNIDPKNPESPFMFSLHLNEARDYEVSDSAPHLEGLAEFQENVRKTNNFSAFLANVRKAFTATVYN [SPC25] | 0.585 | 0.0937 | 49.5 °C | 49.6 °C | -0.881 | -0.275
MNTEAEQQLLHHARNGNAEEVRQLLETMARNEVIADINCKGRSKSNLGWTPLHLACYFGHRQVVQDLLKAGAEVNVLNDMGDTPLHRAAFTGRKELVMLLLEYNADTTIVNGSGQTAKEVTHAEEIRSMLEAVERTQQRKLEELLLAAAREGKTTELTALLNRPNPPDVNCSDQLGNTPLHCAAYRAHKQCALKLLRSGADPNLKNKNDQKPLDLAQGAEMKHILVGNKVIYKALKRYEGPLWKSSRFFGWRLFWVVLEHGVLSWYRKQPDAVHNIYRQGCKHLTQAVCTVKSTDSCLFFIKCFDDTIHGFRVPKNSLQQSREDWLEAIEEHSAYSTHYCSQDQLTDEEEEDTVSAADLKKSLEKAQSCQQRLDREISNFLKMIKECDMAKEMLPSFLQKVEVVSEASRETCVALTDCLNLFTKQEGVRNFKLEQEQEKNKILSEALETLATEHHELEQSLVKGSPPASILSEDEFYDALSDSESERSLSRLEAVTARSFEEEGEHLGSRKHRMSEEKDCGGGDALSNGIKKHRTSLPSPMFSRNDFSIWSILRKCIGMELSKITMPVIFNEPLSFLQRLTEYMEHTYLIHKASSLSDPVERMQCVAAFAVSAVASQWERTGKPFNPLLGETYELVRDDLGFRLISEQVSHHPPISAFHAEGLNNDFIFHGSIYPKLKFWGKSVEAEPKGTITLELLEHNEAYTWTNPTCCVHNIIVGKLWIEQYGNVEIINHKTGDKCVLNFKPCGLFGKELHKVEGYIQDKSKKKLCALYGKWTECLYSVDPATFDAYKKNDKKNTEEKKNSKQMSTSEELDEMPVPDSESVFIIPGSVLLWRIAPRPPNSAQMYNFTSFAMVLNEVDKDMESVIPKTDCRLRPDIRAMENGEIDQASEEKKRLEEKQRAARKNRSKSEEDWKTRWFHQGPNPYNGAQDWIYSGSYWDRNYFNLPDIY [OSBPL1A] | 0.0257 | -0.0641 | 51 °C | 51 °C | -0.0179 | -0.158
MATEGDVELELETETSGPERPPEKPRKHDSGAADLERVTDYAEEKEIQSSNLETAMSVIGDRRSREQKAKQEREKELAKVTIKKEDLELIMTEMEISRAAAERSLREHMGNVVEALIALTN [HYPK] | 0.395 | 0.208 | 54.4 °C | 54 °C | -6.39 | -8.21
MATCAEILRSEFPEIDGQVFDYVTGVLHSGSADFESVDDLVEAVGELLQEVSGDSKDDAGIRAVCQRMYNTLRLAEPQSQGNSQVLLDAPIQLSKITENYDCGTKLPGLLKREQSSTVNAKKLEKAEARLKAKQEKRSEKDTLKTSNPLVLEEASASQAGSRKESRLESSGKNKSYDVRIENFDVSFGDRVLLAGADVNLAWGRRYGLVGRNGLGKTTLLKMLATRSLRVPAHISLLHVEQEVAGDDTPALQSVLESDSVREDLLRRERELTAQIAAGRAEGSEAAELAEIYAKLEEIEADKAPARASVILAGLGFTPKMQQQPTREFSGGWRMRLALARALFARPDLLLLDEPTNMLDVRAILWLENYLQTWPSTILVVSHDRNFLNAIATDIIHLHSQRLDGYRGDFETFIKSKQERLLNQQREYEAQQQYRQHIQVFIDRFRYNANRASQVQSKLKMLEKLPELKPVDKESEVVMKFPDGFEKFSPPILQLDEVDFYYDPKHVIFSRLSVSADLESRICVVGENGAGKSTMLKLLLGDLAPVRGIRHAHRNLKIGYFSQHHVEQLDLNVSAVELLARKFPGRPEEEYRHQLGRYGISGELAMRPLASLSGGQKSRVAFAQMTMPCPNFYILDEPTNHLDMETIEALGRALNNFRGGVILVSHDERFIRLVCRELWVCEGGGVTRVEGGFDQYRALLQEQFRREGFL [ABCF3] | 0.0738 | -0.0928 | 47.9 °C | 47.9 °C | 1.82 | 3.62
MEALPLLAATTPDHGRHRRLLLLPLLLFLLPAGAVQGWETEERPRTREEECHFYAGGQVYPGEASRVSVADHSLHLSKAKISKPAPYWEGTAVIDGEFKELKLTDYRGKYLVFFFYPLDFTFVCPTEIIAFGDRLEEFRSINTEVVACSVDSQFTHLAWINTPRRQGGLGPIRIPLLSDLTHQISKDYGVYLEDSGHTLRGLFIIDDKGILRQITLNDLPVGRSVDETLRLVQAFQYTDKHGEVCPAGWKPGSETIIPDPAGKLKYFDKLN [PRDX4] | -0.00958 | -0.0673 | 58.4 °C | 62.8 °C | -1.92 | -4.08
SVEP1 | -0.163 | -0.0333 | 54.1 °C | 55.1 °C | 1.39 | 1.6
ROBO1 | 0.177 | -0.145 | 55.3 °C | 54.4 °C | -4.69 | -6.19
CDC42BPB | -0.234 | -0.105 | 51 °C | 50.6 °C | 0.874 | 0.582
MALHSMRKARERWSFIRALHKGSAAAPALQKDSKKRVFSGIQPTGILHLGNYLGAIESWVRLQDEYDSVLYSIVDLHSITVPQDPAVLRQSILDMTAVLLACGINPEKSILFQQSQVSEHTQLSWILSCMVRLPRLQHLHQWKAKTTKQKHDGTVGLLTYPVLQAADILLYKSTHVPVGEDQVQHMELVQDLAQGFNKKYGEFFPVPESILTSMKKVKSLRDPSAKMSKSDPDKLATVRITDSPEEIVQKFRKAVTDFTSEVTYDPAGRAGVSNIVAVHAAVTGLSVEEVVRRSAGMNTARYKLAVADAVIEKFAPIKREIEKLKLDKDHLEKVLQIGSAKAKELAYTVCQEVKKLVGFL [WARS2] | 0.308 | -0.0372 | 48.7 °C | 49.2 °C | 0.66 | 0.794
ABCD1 | -0.353 | -0.0995 | 49.9 °C | 49.7 °C | 0.954 | 0.963
SON | -1.78 | 1.3 | 47.4 °C | 49.4 °C | 0.322 | 4.26
RAB35 | -0.0302 | 0.0226 | 56.3 °C | 56.2 °C | -0.529 | -1.17
MNPRQGYSLSGYYTHPFQGYEHRQLRYQQPGPGSSPSSFLLKQIEFLKGQLPEAPVIGKQTPSLPPSLPGLRPRFPVLLASSTRGRQVDIRGVPRGVHLRSQGLQRGFQHPSPRGRSLPQRGVDCLSSHFQELSIYQDQEQRILKFLEELGEGKATTAHDLSGKLGTPKKEINRVLYSLAKKGKLQKEAGTPPLWKIAVSTQAWNQHSGVVRPDGHSQGAPNSDPSLEPEDRNSTSVSEDLLEPFIAVSAQAWNQHSGVVRPDSHSQGSPNSDPGLEPEDSNSTSALEDPLEFLDMAEIKEKICDYLFNVSDSSALNLAKNIGLTKARDINAVLIDMERQGDVYRQGTTPPIWHLTDKKRERMQIKRNTNSVPETAPAAIPETKRNAEFLTCNIPTSNASNNMVTTEKVENGQEPVIKLENRQEARPEPARLKPPVHYNGPSKAGYVDFENGQWATDDIPDDLNSIRAAPGEFRAIMEMPSFYSHGLPRCSPYKKLTECQLKNPISGLLEYAQFASQTCEFNMIEQSGPPHEPRFKFQVVINGREFPPAEAGSKKVAKQDAAMKAMTILLEEAKAKDSGKSEESSHYSTEKESEKTAESQTPTPSATSFFSGKSPVTTLLECMHKLGNSCEFRLLSKEGPAHEPKFQYCVAVGAQTFPSVSAPSKKVAKQMAAEEAMKALHGEATNSMASDNQPEGMISESLDNLESMMPNKVRKIGELVRYLNTNPVGGLLEYARSHGFAAEFKLVDQSGPPHEPKFVYQAKVGGRWFPAVCAHSKKQGKQEAADAALRVLIGENEKAERMGFTEVTPVTGASLRRTMLLLSRSPEAQPKTLPLTGSTFHDQIAMLSHRCFNTLTNSFQPSLLGRKILAAIIMKKDSEDMGVVVSLGTGNRCVKGDSLSLKGETVNDCHAEIISRRGFIRFLYSELMKYNSQTAKDSIFEPAKGGEKLQIKKTVSFHLYISTAPCGDGALFDKSCSDRAMESTESRHYPVFENPKQGKLRTKVENGEGTIPVESSDIVPTWDGIRLGERLRTMSCSDKILRWNVLGLQGALLTHFLQPIYLKSVTLGYLFSQGHLTRAICCRVTRDGSAFEDGLRHPFIVNHPKVGRVSIYDSKRQSGKTKETSVNWCLADGYDLEILDGTRGTVDGPRNELSRVSKKNIFLLFKKLCSFRYRRDLLRLSYGEAKKAARDYETAKNYFKKGLKDMGYGNWISKPQEEKNFYLCPV [ADAR] | -0.466 | 0.346 | 47.9 °C | 49 °C | 2.76 | 5.55
